Where a chain is given by its changes, count along the chain named. In names and notes the source's numbering stands. Where no end group is shown, it is not given here.
What was measured:
ERH-2 [1] = type: binding, C. elegans
ERH-2:PID-3^pep 1:2 = molecular target: T1, ERH-2:PID-3^pep 1:2 (Caenorhabditis elegans, UniProt O76616+Q20057); assay: Isothermal titration calorimetry, binding to ERH-2:PID-3^pep 1:2; parameters: species or system C. elegans
T1 sequence (Q20057 1-113): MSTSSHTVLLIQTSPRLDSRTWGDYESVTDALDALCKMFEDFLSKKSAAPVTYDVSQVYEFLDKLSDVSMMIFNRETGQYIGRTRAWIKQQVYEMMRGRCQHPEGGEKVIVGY
T1 sequence (O76616 171-203 partner limits assumed): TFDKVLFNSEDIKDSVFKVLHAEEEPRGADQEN

ERH-1 [2] = molecular target: T2, ERH-1 (Caenorhabditis elegans, UniProt Q22640); assay: Isothermal titration calorimetry, binding to ERH-1; parameters: species or system C. elegans
T2 sequence (Q22640 1-103): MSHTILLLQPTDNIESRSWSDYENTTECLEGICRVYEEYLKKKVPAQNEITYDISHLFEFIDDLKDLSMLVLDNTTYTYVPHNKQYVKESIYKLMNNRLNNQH

ERH-2 [3] = molecular target: T3, ERH-2 (Caenorhabditis elegans, UniProt Q20057); assay: NMR-monitored titration of 15N-labeled ERH-2; type: binding, C. elegans; conditions: 1H-15N HSQC titration, 25°C, NMR buffer pH 7.50, ERH-2 ~200 μM
T3 sequence (Q20057 1-113): T1 sequence (Q20057 1-113)

ERH-2 [4] = molecular target: T3, ERH-2; assay: Isothermal titration calorimetry, binding to ERH-2; parameters: species or system C. elegans
ERH-2 [5] = assay: Streptavidin pull-down, TOST-1/PID-1 mVenus-Strep bait with ERH-2; type: binding, C. elegans; conditions: TOST-1 or PID-1 mVenus-Strep bait 10-20 μM, prey 1.2-fold molar excess, 4°C
ERH-1 [6] = molecular target: T2, ERH-1; assay: Streptavidin pull-down, TOST-1/PID-1 mVenus-Strep bait with ERH-1; type: binding, C. elegans; conditions: TOST-1 or PID-1 mVenus-Strep bait 10-20 μM, prey 1.2-fold molar excess, 4°C
full-length ERH-2^FL = molecular target: T4, full-length ERH-2^FL (C. elegans, UniProt Q20057 1-113); assay: ITC
T4 sequence (looked up): T1 sequence (Q20057 1-113)

TOST-1-mVenus-Strep = molecular target: T5, TOST-1-mVenus-Strep (C. elegans, UniProt Q18490 1-142); assay: pull-down
T5 sequence (looked up): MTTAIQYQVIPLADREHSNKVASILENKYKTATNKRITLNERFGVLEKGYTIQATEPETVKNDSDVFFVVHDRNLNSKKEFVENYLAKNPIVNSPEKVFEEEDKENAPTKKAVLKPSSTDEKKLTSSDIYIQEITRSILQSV

[7] = SEC-MALS, molecular mass and oligomeric state; type: physicochemical, C. elegans; conditions: for average molecular mass: 2-5 mg/mL, 20 mM Tris/HCl pH 7.5, 150 mM NaCl, 2 mM DTT
TOST-1 = assay: Streptavidin pull-down of ERH-2 variants with TOST-1-mVenus-Strep; type: binding, C. elegans; conditions: ERH-2 variants as prey, TOST-1-mVenus-Strep as bait
[8] = molecular target: Cy5-labeled 16-mer oligo(U) RNA; assay: Fluorescence anisotropy RNA binding, Cy5-U16; conditions: 100 nM Cy5-U16 RNA, 10 mM Tris/HCl pH 7.5, 50 mM KCl, 0.5 mM EDTA, ≥2 h at 15°C, single binding site model, n = 3 technical replicates
PID-3/TOFU-6 interaction = type: binding, C. elegans
crystal structure = molecular target: the molecule itself; assay: crystal structure
TOFU-6^RRM = molecular target: T6, TOFU-6^RRM (C. elegans, UniProt Q09293 1-99); assay: SEC
T6 sequence (looked up): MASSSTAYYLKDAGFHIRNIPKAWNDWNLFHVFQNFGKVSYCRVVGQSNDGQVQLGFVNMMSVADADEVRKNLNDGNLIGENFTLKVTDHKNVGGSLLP

SEC-MALS = molecular target: the molecule itself; assay: SEC-MALS

GST-PID-3^pep: GST-tagged PID-3 peptide (residues 171–203) (TFDKVLFNSEDIKDSVFKVLHAEEEPRGADQEN; also: N-terminal His6 and GST tags, order not given here)
binding to ERH-2 in GST pull-down (ERH-2 [1]): ERH-2 could indeed bind to GST-PID-3^pep

KYKTATNKRITLNERFGVLEKGYTIQ [TOST-1^pep]
Kd (ERH-2:PID-3^pep 1:2): 4 ± 2 µM | Kd (ERH-1 [2]): 10 ± 2 µM | dissociation constant range from NMR exchange regime (ERH-2 [3]): micromolar range

NYNTNLHRKVTLSDRFELAALGYEMKAK [PID-1^pep]
Kd (ERH-1 [2]): 73 ± 11 µM | Kd (ERH-2 [4]): 24 ± 3 µM | dissociation constant range from NMR exchange regime (ERH-2 [3]): micromolar range

PID-1: full-length PID-1, C-terminally tagged with monomeric Venus StrepII tag (NYNTNLHRKVTLSDRFELAALGYEMKAK)
binding to ERH-2 in streptavidin pull-down (ERH-2 [5]): Both PID-1 and TOST-1 bound ERH-2 | binding to ERH-1 in streptavidin pull-down (ERH-1 [6]): interacted with ERH-1

B1: PID-3^pep (peptide, UniProt O76616 171-203, looked up)
peptide: T1 sequence (O76616 171-203 partner limits assumed)
stoichiometry N (full-length ERH-2^FL): 0.97

B2: TOST-1^pep (peptide, UniProt Q18490 28-53, looked up)
peptide: KYKTATNKRITLNERFGVLEKGYTIQ
Kd (full-length ERH-2^FL): 13 µM

B3: ERH-2 T13E (purified) (natural protein, C. elegans, UniProt Q20057 1-113, looked up)
chain: T1 sequence (Q20057 1-113) with T13E
binding result (TOST-1-mVenus-Strep): binds

B4: ERH-2: full-length C. elegans ERH-2 (protein, UniProt Q20057 1-113, looked up)
chain: T1 sequence (Q20057 1-113)
modifications: full-length
oligomeric state [7]: homodimers | average molecular mass [7]: 27 kDa

B5: W87A (protein)
chain: T1 sequence (Q20057 1-113) with W87A
modifications: left off: His6, N-terminal, state not stated | Trx, N-terminal, state not stated
binding to TOST-1 in streptavidin pull-down (TOST-1): weaker interaction with TOST-1

B6: I81A/R83A (protein)
chain: T1 sequence (Q20057 1-113) with I81A, R83A
modifications: left off: His6, N-terminal, state not stated | Trx, N-terminal, state not stated
binding to TOST-1 in streptavidin pull-down (TOST-1): weaker interaction with TOST-1

B7: PID-3/ERH-2: PID-3/ERH-2 subcomplex (protein, UniProt O76616 1-307; Q20057 1-113, looked up)
Protein pid-3: MVAHQKADFKSKWAMVVTVNNLNDKKRADLREFSEWFIETLRLEGAFIGHYFNYEAAPVTIVETLPGNFDSCTNAYQKIHKEHPQVVLVVHILPQSQSNEYEWMKVLASRYGFVRQGLLYDNCANRFQNVETDQNSVFRNMCQWIYRSGTAIVRNEGNACGILHGKDPKPTFDKVLFNSEDIKDSVFKVLHAEEEPRGADQENMLKISGYPGMLNTFGIAQLLTPYRVNGITITGAQSAVVALENKFQVYQAVQDFNGKKLDRNHKLQVSSLVVSSPAVPLEWPSLKKSKKLVEQVGKPIRLSKVSS
Enhancer of rudimentary …: T1 sequence (Q20057 1-113)
average molecular mass [7]: 92 kDa

B8: I182E and S185E: GST-tagged PID-3 mutant(s), Ile182 and Ser185 to glutamate (conjugate, UniProt O76616 1-307, looked up, variant I182E S185E)
Protein pid-3: B7 Protein pid-3 with I182E, S185E
modifications: GST tag
binding to ERH-2 in GST pull-down (ERH-2 [1]): completely abrogated binding of PID-3^pep to ERH-2

B9: I182A and V186A: GST-tagged PID-3 mutant(s), Ile182 and Val186 to alanine (conjugate, UniProt O76616 1-307, looked up, variant I182A V186A)
Protein pid-3: B7 Protein pid-3 with I182A, V186A
modifications: GST tag
binding to ERH-2 in GST pull-down (ERH-2 [1]): sufficient to abolish binding

B10: TOFU-6^RRM: TOFU-6 RRM domain, residues 1–99 (protein)
chain: T6 sequence (looked up)
modifications: left off: His10, N-terminal, state not stated | MBP, N-terminal, state not stated
Kd [8]: ~60 µM | PID-3/TOFU-6 interaction in pull-down (PID-3/TOFU-6 interaction): the RRM domains of PID-3 and TOFU-6 mediate the interaction between the two proteins

B11: ERH-2^ΔC (domain or fragment, C. elegans, UniProt Q20057 1-99, looked up)
chain: MSTSSHTVLLIQTSPRLDSRTWGDYESVTDALDALCKMFEDFLSKKSAAPVTYDVSQVYEFLDKLSDVSMMIFNRETGQYIGRTRAWIKQQVYEMMRGR
binding result (crystal structure): binds

B12: ERH-1 (natural protein, C. elegans, UniProt Q22640 1-103, looked up)
chain: T2 sequence (Q22640 1-103)
binding result (TOST-1-mVenus-Strep): binds

B13: PID-3^RRM (domain or fragment, C. elegans, UniProt O76616 196-274, looked up)
chain: PRGADQENMLKISGYPGMLNTFGIAQLLTPYRVNGITITGAQSAVVALENKFQVYQAVQDFNGKKLDRNHKLQVSSLVV
binding result (TOFU-6^RRM): binds

B14: PID-3^RRM F247E/Q251R (purified) (domain or fragment, C. elegans, UniProt O76616 196-274, looked up)
chain: B13 chain with F52E, Q56R
stoichiometry N (SEC-MALS): 2

B15: PID-3^RRM F247E/Q251R (protein)
chain: B13 chain with F52E, Q56R
modifications: left off: His6, N-terminal, kept | GST, N-terminal, kept
oligomeric state [7]: homodimeric

B16: PID-3^RRM A220E (protein)
chain: B13 chain with A25E
modifications: left off: His6, N-terminal, kept | GST, N-terminal, kept
oligomeric state [7]: monomeric

Reference: article PMC8415317 (Genes & Development, 2021)
